Measured values published in patent US20240025997A1 (NGM BIOPHARMACEUTICALS, published 2024).

Legend:
soluble human ILT2-ECD [1] = target: T1, soluble human ILT2-ECD (human, UniProt Q8NHL6 24-461); assay: Biacore competition: antibody titrated against 20 nM ILT2-ECD, mixture injected over biotinylated HLA-A*1101 on a NeutrAvidin chip
T1 construct: also called LILRB1 extracellular domain
Description: (§1) As part of the characterization process, the ability of exemplary antibodies to inhibit or block the interaction of ILT2 or ILT4 with their natural ligands was evaluated in competition experiments using a Biacore system. As described herein, the natural ligands of ILT2 and ILT4 include, but are not limited to, HLA class I molecules, including HLA-A, HLA-B, HLA-C, HLA-E, and HLA-G. Biotinylated HLA-A*1101 was captured in high amounts on a NeutrAvidin chip surface. Antigen-antibody complexes were prepared with (i) ILT2-ECD and anti-ILT2 antibody 27F9, anti-ILT4 antibody 48A5, or anti-ILT2/ILT4 antibody Hz73D1.v1 and (ii) ILT4-ECD and anti-ILT2 antibody 27F9, anti-ILT4 antibody 48A5, or anti-ILT2/ILT4 antibody Hz73D1.v1. The antibody concentration of each antibody was titrated from 0.09-100 nM and the concentration of human ILT2-ECD or ILT4-ECD was kept constant at 20 nM. The complexes were mixed in a 96-well microplate and each was injected onto the HLA-A-coated chip surface. The measured signal (response unit, RU) was plotted against the antibody concentration.

Human ILT4-Fc = Human ILT4-Fc (human, UniProt Q8N423 22-460); assay: SPR (Biacore) competition: blocking of human ILT4-Fc binding to HLA-A, 25 C
Description: (§2) In addition to the reporter cell system, the inhibitory activity of anti-ILT2/ILT4 antibodies towards the interaction between ILT2 and MHC I molecules, and the interaction between ILT4 and MHC I molecules was evaluated using the Biacore system. Human ILT2-Fc and ILT4-Fc were used as target receptors and their interaction with an exemplary MHC-I molecule (HLA-A) was assayed in the presence or absence of an exemplary anti-ILT2/ILT4 antibody Hz73D1.v1 at 25° C. Anti-human ILT2 (clone 27F9) or ILT4 (clone 48A5) antibodies were used as tool reagents to dissect ILT2- and ILT4-specific blocking activities. Anti-IL2/ILT4 antibodies produced a dose-dependent reduction in the interaction between ILT2 and HLA-A, as well as between ILT4 and HLA-A. IC50s of the antibodies tested are shown in Table 16.

soluble human ILT4-ECD [2] = target: T2, soluble human ILT4-ECD (human, UniProt Q8N423 22-460); assay: Biacore competition: antibody titrated against 20 nM ILT4-ECD, mixture injected over biotinylated HLA-A*1101 on a NeutrAvidin chip; blocked ligand HLA-A*1101
T2 construct: also called LILRB2 extracellular domain
Description: as §1

[3] = target: T3, human ILT2 chimeric reporter receptor (ILT2 extracellular domain fused to PILRbeta … (human, UniProt Q8NHL6 24-461)); assay: reporter cell assay (not a direct binding assay): human ILT2 reporter cells co-cultured with Raji cells, %GFP+ by FACS
T3 construct: On the surface of NFAT-GFP reporter cells; associates with DAP12; also called ILT2 reporter cells; Human ILT2 reporter construct; not shown: The PILRbeta transmembrane/intracellular domain
Description: The ability of anti-ILT2/ILT4 antibodies to inhibit the interaction between ILT2 and/or ILT4 and MHC I molecules was evaluated using a reporter cell system. […] In this chimeric receptor system, the extracellular domain of the receptor of interest (e.g., ILT2 or ILT4) is fused with the transmembrane/intracellular domain of PILRβ that associates with the adaptor protein DAP12. When the chimeric receptor (e.g., ILT2 or ILT-4) is activated by binding to a ligand (e.g., MHC I molecule), DAP12 becomes phosphorylated and activates an NFAT-responsive promoter which drives GFP expression (see, e.g., Deng et al., 2014, Blood, 124:924-935).
Reporter cells were washed after staining and resuspended at 1×10⁶ cells/ml in X-VIVO™ 15 media (Lonza). […] For assays with Raji cells: anti-ILT2 antibody 27F9, anti-ILT4 antibody 48A5, anti-ILT2/ILT4 antibody 73D1 and Hz73D1.v1, and a control antibody were serially diluted and 50 μl was added to each well of a 96-well flat-bottom cell culture plate. […] The plates were incubated overnight at 37° C. The next day, reporter cells were assayed for GFP expression by FACS.

human ILT4 on cells [4] = target: T4, human ILT4 on cells (human, UniProt Q8N423 22-597); assay: flow cytometry, fluorescently labelled antibody on immune cell subsets of PBMC / red-cell-depleted whole blood
T4 construct: also called LILRB2; human ILT4 expressed on 293T cells
Description: (§3) Flow cytometry analysis of blood immune cells was performed on human and cyno PBMC and whole blood. PBMC were prepared from a leukopak (Allcells Inc.) by centrifugation through ficoll, washing with PBS and freezing in cryopreservation buffer in liquid nitrogen until use. Whole blood (Allcells Inc.) was obtained fresh and red blood cells (RBC) depleted using ammonium chloride RBC lysing solution (Biolegend). PBMC or whole blood samples were stained with a fluorescently labeled antibody panel to distinguish various immune subsets (monocytes, B cells, NK cells, CD4+ and CD8+ T cells, neutrophils and eosinophils). Samples were further stained with fluorescently labeled isotype, 27F9 (ILT2 specific), 48A5 (ILT4 specific), 73D1, and Hz73D1.v1. The number of ILT2 and ILT4 molecules per cell of each immune subset was estimated by incubation with Quantum Simply Cellular microspheres followed by flow cytometry analysis.

human ILT2 on cells [5] = target: T5, human ILT2 on cells (human, UniProt Q8NHL6 24-650); assay: as above
T5 construct: also called LILRB1; human ILT2 expressed on 293T cells
Description: as §3

soluble human ILT4-ECD [6] = target: T2, soluble human ILT4-ECD; assay: SPR (Biacore), antibody captured on Protein A chip, soluble ILT-ECD injected (1.6-200 nM), 25 C
Description: (§4) The binding affinities of anti-ILT2 and anti-ILT4 antibodies were measured using a Biacore system (GE Healthcare LifeSciences). Equilibrium dissociation constant (KD) measurements were carried out with purified antibodies to evaluate their binding to human ILT2, human ILT4, and rhesus ILT2. Briefly, purified anti-ILT2 antibody 27F9, anti-ILT4 antibodies 47C8 and 48A5, and anti-ILT2/ILT4 antibodies 47H6, 51A1, 64A12, 73C4, and 73D1 were captured on a Sensor Chip Protein A (GE HealthCare). The surface of the Biacore Sensor Chip Protein A consists of a carboxymethylated dextran matrix with a recombinant Protein A variant covalently attached. Soluble human ILT2-ECD, human ILT4-ECD, or rhesus ILT2-ECD were injected at a flow rate of 30 μL/min at 25° C. The ILT2 or ILT4 proteins were used at concentrations ranging from 1.6-200 nM in PBS-P buffer with 2 fold dilutions. Kinetic data were collected over time and fit using the simultaneous global fit equation to yield affinity constants (KD values) for each antibody.

soluble human ILT4-ECD [7] = target: T2, soluble human ILT4-ECD; assay: SPR (Biacore), antibody captured on Protein A chip, ILT protein injected, 25 C
soluble human ILT2-ECD [8] = target: T1, soluble human ILT2-ECD; assay: as above
human ILT4 on cells [9] = target: T4, human ILT4 on cells; assay: cell-based or functional assay
Human ILT2-Fc = Human ILT2-Fc (human, UniProt Q8NHL6 24-461, limits assumed); assay: SPR (Biacore) competition: blocking of human ILT2-Fc binding to HLA-A, 25 C
Description: as §2

soluble human ILT2-ECD [10] = target: T1, soluble human ILT2-ECD; assay: Biacore competition: antibody titrated against 20 nM ILT2-ECD, mixture injected over biotinylated HLA-A*1101 on a NeutrAvidin chip; blocked ligand HLA-A*1101
Description: as §1

[11] = target: T6, cynomolgus monkey ILT2 on cells (cynomolgus monkey); assay: flow cytometry, fluorescently labelled antibody on CD14+ monocytes of cyno PBMC (2 donors), geometric MFI
T6 construct: also called cyno ILT2; ILT2 on cyno CD14+ monocytes
Description: The binding of anti-ILT2/ILT4 antibodies to monocytes was evaluated. The binding of exemplary anti-ILT2/ILT4 antibody 73D1 and the humanized version Hz73D1.v1 to the CD14+ monocyte population of human and cyno PBMC were determined by flow cytometry analysis. Briefly, human or cyno PBMCs (from 2 donors each) were thawed, washed in media (RPMI, 10% FBS, L-glutamine, pen/strep), and resuspended in fresh media. PBMCs were stained with a cocktail of labeled antibodies to differentiate between the different cell types. 1×10⁶ cells/well were stained with fluorescently-labelled 73D1 or Hz73D1.v1 antibody and incubated on ice. The cells were washed with ice-cold reagents and immediately analyzed by flow cytometry. The geometric mean fluorescence intensity for CD14+ monocytes was calculated for each sample. […] For example, the 50% effective concentration (EC₅₀) of Hz73D1.v1 was 8.8 nM with human monocytes and 1.8 nM with cyno monocytes.

human ILT4 on cells [12] = target: T4, human ILT4 on cells; assay: cell-based or functional assay; remark: listed apart in the source
human ILT2 on cells [13] = target: T5, human ILT2 on cells; assay: cell-based or functional assay
soluble human ILT4-ECD [14] = target: T2, soluble human ILT4-ECD; assay: SPR (Biacore) as described in Example 3
Description: as §4
(§5) The binding affinities of the humanized antibodies to human ILT2 and human ILT4 were measured using a Biacore system as described herein. The binding affinities of antibodies Hz47H6.v2, Hz64A12, and Hz73D1.v1 are shown in Table 11 as compared with the parental antibodies.

soluble human ILT2-ECD [15] = target: T1, soluble human ILT2-ECD; assay: SPR (Biacore) as described in Example 3
Description: as §4, §5

T2 sequence (Q8N423 other isoform, or with tags, fused parts or gaps): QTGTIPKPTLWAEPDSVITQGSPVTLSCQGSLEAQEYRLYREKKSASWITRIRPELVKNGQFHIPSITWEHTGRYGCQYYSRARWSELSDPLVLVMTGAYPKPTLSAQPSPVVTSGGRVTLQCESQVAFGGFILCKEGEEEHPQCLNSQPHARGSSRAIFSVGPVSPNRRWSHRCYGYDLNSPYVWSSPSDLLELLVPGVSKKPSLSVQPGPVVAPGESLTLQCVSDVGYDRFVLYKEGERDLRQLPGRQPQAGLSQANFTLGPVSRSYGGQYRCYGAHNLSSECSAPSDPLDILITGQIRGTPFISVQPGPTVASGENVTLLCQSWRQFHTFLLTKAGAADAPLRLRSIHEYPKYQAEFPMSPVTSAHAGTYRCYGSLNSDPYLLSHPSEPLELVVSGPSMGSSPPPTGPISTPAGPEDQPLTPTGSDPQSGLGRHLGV
T5 sequence (Q8NHL6 24-650): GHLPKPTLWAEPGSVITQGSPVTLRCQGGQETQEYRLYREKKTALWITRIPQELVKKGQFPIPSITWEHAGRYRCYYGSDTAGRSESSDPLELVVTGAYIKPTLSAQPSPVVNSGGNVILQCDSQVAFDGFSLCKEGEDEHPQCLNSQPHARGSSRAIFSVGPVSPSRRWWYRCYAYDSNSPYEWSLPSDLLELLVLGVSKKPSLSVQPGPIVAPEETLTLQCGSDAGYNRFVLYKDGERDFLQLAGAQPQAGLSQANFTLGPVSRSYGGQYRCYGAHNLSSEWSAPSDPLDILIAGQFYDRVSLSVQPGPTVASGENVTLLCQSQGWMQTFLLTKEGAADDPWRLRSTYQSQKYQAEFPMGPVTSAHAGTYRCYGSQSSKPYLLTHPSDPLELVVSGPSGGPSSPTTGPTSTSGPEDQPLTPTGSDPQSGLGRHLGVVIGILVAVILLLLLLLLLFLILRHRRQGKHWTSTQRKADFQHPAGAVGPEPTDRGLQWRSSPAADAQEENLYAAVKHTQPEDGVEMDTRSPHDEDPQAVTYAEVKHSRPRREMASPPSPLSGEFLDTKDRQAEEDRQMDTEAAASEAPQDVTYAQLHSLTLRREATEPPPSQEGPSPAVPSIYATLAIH
T4 sequence (Q8N423 other isoform, or with tags, fused parts or gaps): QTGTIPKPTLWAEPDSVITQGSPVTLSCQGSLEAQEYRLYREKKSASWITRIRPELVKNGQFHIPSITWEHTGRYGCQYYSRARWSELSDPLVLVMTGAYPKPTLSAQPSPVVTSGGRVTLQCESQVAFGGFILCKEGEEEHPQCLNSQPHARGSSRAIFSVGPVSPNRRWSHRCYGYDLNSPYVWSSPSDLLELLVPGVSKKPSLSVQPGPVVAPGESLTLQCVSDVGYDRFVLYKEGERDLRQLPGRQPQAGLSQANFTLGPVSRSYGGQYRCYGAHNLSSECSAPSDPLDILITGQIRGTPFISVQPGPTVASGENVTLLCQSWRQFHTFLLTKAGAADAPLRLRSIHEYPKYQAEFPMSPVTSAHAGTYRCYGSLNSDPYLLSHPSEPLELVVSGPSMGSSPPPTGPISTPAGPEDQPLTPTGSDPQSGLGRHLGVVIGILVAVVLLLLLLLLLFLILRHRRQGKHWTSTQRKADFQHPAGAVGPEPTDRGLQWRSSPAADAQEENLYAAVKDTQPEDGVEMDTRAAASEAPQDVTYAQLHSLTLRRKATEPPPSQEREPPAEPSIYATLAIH
T1 sequence (Q8NHL6 24-461): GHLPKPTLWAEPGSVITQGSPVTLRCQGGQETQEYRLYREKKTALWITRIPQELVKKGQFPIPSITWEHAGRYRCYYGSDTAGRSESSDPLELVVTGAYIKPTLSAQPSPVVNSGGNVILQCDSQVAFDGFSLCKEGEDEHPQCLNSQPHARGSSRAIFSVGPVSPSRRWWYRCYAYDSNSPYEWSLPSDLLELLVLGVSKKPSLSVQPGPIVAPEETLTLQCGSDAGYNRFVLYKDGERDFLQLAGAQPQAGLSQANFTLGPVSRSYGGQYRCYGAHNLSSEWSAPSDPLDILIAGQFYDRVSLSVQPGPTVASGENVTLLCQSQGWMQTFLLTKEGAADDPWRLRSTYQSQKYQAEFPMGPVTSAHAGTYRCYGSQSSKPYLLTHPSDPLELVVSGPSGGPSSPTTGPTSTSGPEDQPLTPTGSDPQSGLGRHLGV
T6 sequence (chain, as listed by the source): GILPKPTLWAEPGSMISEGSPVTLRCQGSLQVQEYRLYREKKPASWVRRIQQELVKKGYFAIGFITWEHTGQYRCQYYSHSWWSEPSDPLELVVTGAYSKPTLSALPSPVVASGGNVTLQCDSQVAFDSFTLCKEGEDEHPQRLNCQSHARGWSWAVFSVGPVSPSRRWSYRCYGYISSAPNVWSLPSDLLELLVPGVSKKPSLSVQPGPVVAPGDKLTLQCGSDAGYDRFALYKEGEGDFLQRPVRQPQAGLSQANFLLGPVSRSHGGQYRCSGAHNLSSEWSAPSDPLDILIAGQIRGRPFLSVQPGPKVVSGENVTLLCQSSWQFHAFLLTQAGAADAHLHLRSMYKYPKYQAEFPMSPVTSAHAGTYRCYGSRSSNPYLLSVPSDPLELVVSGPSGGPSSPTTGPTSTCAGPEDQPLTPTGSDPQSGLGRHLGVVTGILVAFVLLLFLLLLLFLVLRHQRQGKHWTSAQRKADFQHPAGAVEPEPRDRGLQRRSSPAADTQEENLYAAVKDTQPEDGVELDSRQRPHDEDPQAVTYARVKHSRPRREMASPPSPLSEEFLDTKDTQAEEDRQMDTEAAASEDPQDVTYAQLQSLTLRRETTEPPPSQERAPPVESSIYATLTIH
T3 sequence (Q8NHL6 24-461 limits assumed, change not shown): as the sequence (Q8NHL6 24-461) above
Chain of Human ILT2-Fc (Q8NHL6 24-461 limits assumed): as the sequence (Q8NHL6 24-461) above

B1: anti-ILT4 antibody 48A5 (antibody, V domains shown)
VH: QIQLVQSGPELKKPGETVKISCKASGYTFTNYGMNWVKQAPGKGLKWMGWINTYIGEPIYADDFKGRFAFSLETSASTAYLQINNLKNEDMATYFCARRSDYDGYAMDYWGQGTSVTVSS
VL: DIVMSQSPSSLAVSVGERVTMSCKSSQSLLYSGNQKNYLAWYQQKPGQSPKLLIYWASTRESGVPDRFTGSGSGTDFTLTISSVKAEDLAVYYCQQHDSYPTFGGGSRLEIK
notes: Mouse hybridoma antibody; also called clone 48A5; anti-ILT4 (48A5)
Soluble human ILT2-ECD [1]
  binding result: no binding (tested: about 200 nM)
Human ILT4-Fc
  IC50: 8.4 nM
Soluble human ILT4-ECD [2]
  IC50 (read off the curve): ~20 nM
[3]
  binding result: no binding (tested: Log nM about 1.5 (about 30 nM))
Human ILT4 on cells [4]
  binding result: binds
Human ILT2 on cells [5]
  binding result: no binding (tested: not given)
Soluble human ILT4-ECD [6]
  Kd: 0.026 nM
  koff: 2.1e-05 s⁻¹
  kon: 810000 M⁻¹ s⁻¹

B2: humanized anti-ILT2/ILT4 antibody Hz73D1.v1 (antibody, human IgG1, kappa, N297G, V domains shown)
VH: QVQLVQSGAEVKKPGASVKVSCKASGYTFTDYYINWVRQAPGQGLEWMGNVNPNDGGTTYNQKFKGRVTMTTDTSTSTAYMELRSLRSDDTAVYYCARREIYFYGTIYYYAMDYWGQGTLVTVSS
VL: DIQLTQSPSFLSASVGDRVTITCRASESVDYYGNSFMYWYQQKPGKAPKLLIYFASNLESGVPSRFSGSGSGTEFTLTISSLQPEDFATYYCQQNNEDPWTFGGGTKVEIKR
notes: Human IgG1 constant region with G at position 297, human kappa; also called Hz73D1.vi
Soluble human ILT4-ECD [7]
  Kd: 0.205 nM
  koff: 4.6e-05 s⁻¹
  kon: 220000 M⁻¹ s⁻¹
Soluble human ILT2-ECD [8]
  Kd: 1.03 nM
  koff: 4.85e-05 s⁻¹
  kon: 47200 M⁻¹ s⁻¹
Human ILT4-Fc
  IC50: 9.4 nM
Soluble human ILT4-ECD [2]
  IC50 (read off the curve): ~9 nM
Human ILT4 on cells [9]
  EC50 (nM), TNFalpha secretion of tolerized dendritic cells, LPS + Cyclosporine: 0.2 nM
  EC50 (nM), TNFalpha secretion of tolerized dendritic cells, LPS + IL-6: 0.14 nM
  EC50 (nM), TNFalpha secretion of tolerized dendritic cells, LPS + IL-10: 1.2 nM
  EC50 (nM), TNFalpha secretion of tolerized dendritic cells, LPS + PGE2: 0.44 nM
  EC50 (nM), TNFalpha secretion of tolerized dendritic cells, LPS + Rapamycin: 0.15 nM
  EC50 (nM), TNFalpha secretion of tolerized dendritic cells, LPS + TGFβ: 0.1 nM
  EC50 (nM), TNFalpha secretion of tolerized dendritic cells, LPS + VitD3/Dex: 0.4 nM
Human ILT2-Fc
  IC50: 10 nM
Soluble human ILT2-ECD [10]
  IC50 (read off the curve): ~9 nM
[11]
  binding result: binds
Human ILT4 on cells [12]
  EC50, GM-CSF secretion of LPS-stimulated human PBMC: 1.5 nM
  EC50, TNFalpha secretion of LPS-stimulated human PBMC: 0.76 nM
Human ILT2 on cells [13]
  EC50, NKL cytolytic activity against 721.221-HLA-A*0201 target cells: 0.13 nM
  EC50, NKL cytolytic activity against 721.221-HLA-G target cells: 2.4 nM
  percent CD137+ NK cells, ADCC assay with CAL-27 cells and anti-EGFR antibody: 1.8 fold
Soluble human ILT4-ECD [14]
  Kd: 0.75 nM
  koff: 0.00027 s⁻¹
  kon: 360000 M⁻¹ s⁻¹
Soluble human ILT2-ECD [15]
  Kd: 3 nM
  koff: 0.00025 s⁻¹
  kon: 85000 M⁻¹ s⁻¹
